From the supplement of paper PMC9112550, “Optimization of the antimicrobial peptide Bac7 by deep mutational scanning” (BMC Biology, 2022) come the findings set out here.
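Also: peptides expressed intracellularly from a pBAD plasmid library in pooled LB shake-flask culture, induced with 0.3% L-arabinose, DNA abundance read by NGS, three biological replicates, DESeq2 with apeglm shrinkage.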

In the data set the test system is Escherichia coli TOP10. The data set can be described thus: shrunken log2 fold change of peptide-encoding DNA abundance (4.5 h post-induction vs induction); higher = less antimicrobial activity (less host growth inhibition). The note with it: time post-induction: 4.5 h; library: site-saturation at positions 5, 18, 19, 20.
Take RRIRPRPPRLPRPRPRPWAYPRP: the “shrunken log2 fold change” value is -0.0727.

Consider RRIRWRPPRLPRPRPRPNKHPRP, for which the “shrunken log2 fold change” value is -0.281.

Turning to RRIRTRPPRLPRPRPRPAKVPRP, the “shrunken log2 fold change” value was -0.29.

For RRIRWRPPRLPRPRPRPDNTPRP, the “shrunken log2 fold change” value was -0.25.

As to RRIRSRPPRLPRPRPRPIGAPRP, the “shrunken log2 fold change” value was found to be 0.058.

Consider RRIRFRPPRLPRPRPRPCNVPRP, for which the “shrunken log2 fold change” value is -0.01.

For RRIRMRPPRLPRPRPRPEVPPRP, the “shrunken log2 fold change” value came to 1.33.

Regarding RRIRMRPPRLPRPRPRPLEVPRP, the “shrunken log2 fold change” value was determined as 0.405.

For the sequence RRIRVRPPRLPRPRPRPPFDPRP, the “shrunken log2 fold change” value worked out at 0.199.

In the case of RRIRERPPRLPRPRPRPCQPPRP, the “shrunken log2 fold change” value was 0.0208.

As for RRIRSRPPRLPRPRPRPWGDPRP, the “shrunken log2 fold change” value was -0.077.

For RRIRLRPPRLPRPRPRPSDFPRP, the “shrunken log2 fold change” value was -0.131.

In the case of RRIRLRPPRLPRPRPRPLAPPRP, the “shrunken log2 fold change” value is 0.274.

Regarding RRIRQRPPRLPRPRPRPEAAPRP, the “shrunken log2 fold change” value was 0.751.

As to RRIRRRPPRLPRPRPRPEPHPRP, the “shrunken log2 fold change” value amounted to 0.315.

Turning to RRIRGRPPRLPRPRPRPTDGPRP, the “shrunken log2 fold change” value came out at 0.361.

Turning to RRIRQRPPRLPRPRPRPDFAPRP, the “shrunken log2 fold change” value was -0.0596.

As to RRIRTRPPRLPRPRPRPFSPPRP, the “shrunken log2 fold change” value was -0.375.

Regarding RRIRPRPPRLPRPRPRPGMEPRP, the “shrunken log2 fold change” value was 0.367.

Regarding RRIRIRPPRLPRPRPRPMCCPRP, the “shrunken log2 fold change” value was -0.212.

For RRIRQRPPRLPRPRPRPKHFPRP, the “shrunken log2 fold change” value is -0.0231.

As for RRIRIRPPRLPRPRPRPGVIPRP, the “shrunken log2 fold change” value is -0.0127.

On to RRIRRRPPRLPRPRPRPIHIPRP, for which the “shrunken log2 fold change” value was -0.579.

Regarding RRIRFRPPRLPRPRPRPLIDPRP, the “shrunken log2 fold change” value is -0.227.

On to RRIRCRPPRLPRPRPRPEGMPRP, for which the “shrunken log2 fold change” value worked out at 0.422.

For RRIRGRPPRLPRPRPRPHVSPRP, the “shrunken log2 fold change” value was determined as 0.396.

For the sequence RRIRARPPRLPRPRPRPMSTPRP, the “shrunken log2 fold change” value is -0.0262.

On to RRIRHRPPRLPRPRPRPGQNPRP, for which the “shrunken log2 fold change” value was -0.226.

On to RRIRVRPPRLPRPRPRPVLCPRP, for which the “shrunken log2 fold change” value was found to be 0.0228.

RRIRDRPPRLPRPRPRPDLCPRP: the “shrunken log2 fold change” value was -0.0018.

With RRIRHRPPRLPRPRPRPRSAPRP, the “shrunken log2 fold change” value was found to be 0.356.

Consider RRIRDRPPRLPRPRPRPDYVPRP, for which the “shrunken log2 fold change” value is -0.0518.

For the sequence RRIRDRPPRLPRPRPRPQPVPRP, the “shrunken log2 fold change” value came to 0.28.

Regarding RRIRERPPRLPRPRPRPFIIPRP, the “shrunken log2 fold change” value is -0.769.

For the sequence RRIRRRPPRLPRPRPRPGNWPRP, the “shrunken log2 fold change” value was found to be 0.393.

For the sequence RRIRYRPPRLPRPRPRPIGAPRP, the “shrunken log2 fold change” value was -0.419.

On to RRIRTRPPRLPRPRPRPGYWPRP, for which the “shrunken log2 fold change” value is -0.0903.

With RRIRPRPPRLPRPRPRPHWIPRP, the “shrunken log2 fold change” value was -0.212.

As for RRIRYRPPRLPRPRPRPREKPRP, the “shrunken log2 fold change” value came out at 0.124.

Consider RRIRNRPPRLPRPRPRPVRFPRP, for which the “shrunken log2 fold change” value stood at 0.0789.

Turning to RRIRYRPPRLPRPRPRPYKRPRP, the “shrunken log2 fold change” value was -2.31.

Regarding RRIRARPPRLPRPRPRPIFYPRP, the “shrunken log2 fold change” value was -0.0773.

In the case of RRIRNRPPRLPRPRPRPWTFPRP, the “shrunken log2 fold change” value is -0.0614.

As for RRIRSRPPRLPRPRPRPQEMPRP, the “shrunken log2 fold change” value turned out to be 0.111.

On to RRIRSRPPRLPRPRPRPSRPPRP, for which the “shrunken log2 fold change” value was 1.28.

As for RRIRHRPPRLPRPRPRPQDQPRP, the “shrunken log2 fold change” value came out at 0.0969.

For the sequence RRIRQRPPRLPRPRPRPKQVPRP, the “shrunken log2 fold change” value turned out to be 0.0304.

In the case of RRIRKRPPRLPRPRPRPNYGPRP, the “shrunken log2 fold change” value was -0.226.

Regarding RRIRCRPPRLPRPRPRPLLSPRP, the “shrunken log2 fold change” value is -0.306.

As to RRIRVRPPRLPRPRPRPKDWPRP, the “shrunken log2 fold change” value is 0.0589.

As for RRIRRRPPRLPRPRPRPCYLPRP, the “shrunken log2 fold change” value is -0.499.

For RRIRERPPRLPRPRPRPDAPPRP, the “shrunken log2 fold change” value turned out to be 0.0716.

In the case of RRIRARPPRLPRPRPRPMPTPRP, the “shrunken log2 fold change” value was 0.866.

Turning to RRIRRRPPRLPRPRPRPYCTPRP, the “shrunken log2 fold change” value was -0.24.

As to RRIRPRPPRLPRPRPRPNYWPRP, the “shrunken log2 fold change” value was -0.234.

Turning to RRIRWRPPRLPRPRPRPANCPRP, the “shrunken log2 fold change” value is 0.0179.

With RRIRRRPPRLPRPRPRPNFRPRP, the “shrunken log2 fold change” value was 0.0627.

RRIRWRPPRLPRPRPRPAPEPRP: the “shrunken log2 fold change” value is 0.603.

RRIRTRPPRLPRPRPRPRGWPRP: the “shrunken log2 fold change” value is 0.897.

As for RRIRYRPPRLPRPRPRPYIHPRP, the “shrunken log2 fold change” value is -1.31.

For RRIRRRPPRLPRPRPRPRKWPRP, the “shrunken log2 fold change” value was 0.319.

For the sequence RRIRQRPPRLPRPRPRPGSHPRP, the “shrunken log2 fold change” value is -0.108.

Take RRIRDRPPRLPRPRPRPEECPRP: the “shrunken log2 fold change” value is -0.00963.

For RRIRCRPPRLPRPRPRPFVKPRP, the “shrunken log2 fold change” value is -0.4.

Regarding RRIRMRPPRLPRPRPRPFLEPRP, the “shrunken log2 fold change” value was -0.088.

Regarding RRIRARPPRLPRPRPRPNAVPRP, the “shrunken log2 fold change” value was determined as 0.0101.

For the sequence RRIRWRPPRLPRPRPRPYPNPRP, the “shrunken log2 fold change” value is -0.58.

Take RRIRVRPPRLPRPRPRPYPPPRP: the “shrunken log2 fold change” value was -0.103.

With RRIRCRPPRLPRPRPRPLVFPRP, the “shrunken log2 fold change” value is -0.317.

On to RRIRTRPPRLPRPRPRPAGFPRP, for which the “shrunken log2 fold change” value was -0.0588.

In the case of RRIRYRPPRLPRPRPRPMRMPRP, the “shrunken log2 fold change” value worked out at 0.126.

With RRIRNRPPRLPRPRPRPSRYPRP, the “shrunken log2 fold change” value is -0.000156.

As for RRIRCRPPRLPRPRPRPEAQPRP, the “shrunken log2 fold change” value amounted to 0.704.

Take RRIRPRPPRLPRPRPRPILLPRP: the “shrunken log2 fold change” value was -0.526.

For RRIRWRPPRLPRPRPRPCIGPRP, the “shrunken log2 fold change” value was -0.148.

RRIRARPPRLPRPRPRPCNPPRP: the “shrunken log2 fold change” value is -0.0307.

For RRIRDRPPRLPRPRPRPMQKPRP, the “shrunken log2 fold change” value worked out at 0.0229.

In the case of RRIRERPPRLPRPRPRPRHAPRP, the “shrunken log2 fold change” value was -0.0387.

With RRIRYRPPRLPRPRPRPMNKPRP, the “shrunken log2 fold change” value was -0.187.

With RRIRPRPPRLPRPRPRPTIMPRP, the “shrunken log2 fold change” value is -0.335.

Regarding RRIRDRPPRLPRPRPRPTVLPRP, the “shrunken log2 fold change” value came to 0.306.

In the case of RRIRARPPRLPRPRPRPSHTPRP, the “shrunken log2 fold change” value stood at 0.162.

As for RRIRYRPPRLPRPRPRPAHQPRP, the “shrunken log2 fold change” value was found to be 0.126.

For the sequence RRIRDRPPRLPRPRPRPTARPRP, the “shrunken log2 fold change” value came to 0.546.

RRIRGRPPRLPRPRPRPRCFPRP: the “shrunken log2 fold change” value was determined as 0.698.

Take RRIRERPPRLPRPRPRPHSFPRP: the “shrunken log2 fold change” value is 0.0142.

As for RRIRGRPPRLPRPRPRPEPHPRP, the “shrunken log2 fold change” value worked out at 1.09.

As for RRIRDRPPRLPRPRPRPASRPRP, the “shrunken log2 fold change” value worked out at 0.17.

Consider RRIRMRPPRLPRPRPRPDNIPRP, for which the “shrunken log2 fold change” value was -0.184.

Regarding RRIRPRPPRLPRPRPRPGWNPRP, the “shrunken log2 fold change” value was -0.055.

As for RRIRIRPPRLPRPRPRPLHMPRP, the “shrunken log2 fold change” value is -0.571.
